Assay results from patent US9012420B2, “Aptamer for chymase, and use thereof” (Ribomic Inc., priority 2009, dated 2015).
Oligonucleotides are written 5' to 3', each unit as a sugar letter and its base; * is a phosphorothioate linkage, no mark a phosphodiester; rarer units and linkages stand in square brackets, end groups in braces. Plain capitals give the bases only. r = 2'-OH (RNA); f = 2'-fluoro

B1: 61(1) (ssRNA)
RNA: GGGUUAGAUAGAUUUAAAAACCC
modifications: G(M)G(M)G(M)U(F)U(F)AG(M)A(M)U(F)A(M)GAU(F)U(F)U(F)A(M)A(M)A(M)A(M)A(M)C(F)C(F)C(F) (M=2'-OMe, F=2'-F)
B2: SEQ 71 (mixed)
mixed: GGGUUAGAUAGAGTUAAAAACCC
modifications: idT-G(M)G(M)G(M)U(F)U(F)AG(M)A(M)U(F)A(M)GAG(M)tU(F)A(M)A(M)A(M)A(M)A(M)C(F)C(F)C(F)-idT (lower case DNA)
B3: SEQ 70 (mixed)
mixed: GGGTTAGAUAGAGUUAAAAACCC
modifications: idT-G(M)G(M)G(M)ttAG(M)A(M)U(F)A(M)GAG(M)U(F)U(F)A(M)A(M)A(M)A(M)A(M)C(F)C(F)C(F)-idT (lower case DNA)
B4: SEQ 48 (ssRNA)
RNA: GGGAGCAGGAGAGAGGUCAGAUGUGAAGAUAGAGAUAAAUCACAUACAGUCGGCCUAUGCGUGCUAGUGUGA
modifications: 2'-F pyrimidines
B5: SEQ 44 (ssRNA)
RNA: GGGAGCAGGAGAGAGGUCAGAUGUUAGACCAAAGCAUAGGAGAUAGAGUUAAACCUAUGCGUGCUAGUGUGA
modifications: 2'-F pyrimidines
B6: GGGACGGUAGGAAUUCCGCAACCAUCCCGUAACUAUGGUUAGAUAGAGUUAAAAACCAUAGAAGAGCGGCCGC (nucleic acid)
chain: GGGACGGUAGGAAUUCCGCAACCAUCCCGUAACUAUGGUUAGAUAGAGUUAAAAACCAUAGAAGAGCGGCCGC
modifications: chemistry not given here
B7: SEQ 43 (ssRNA)
RNA: GGGAGCAGGAGAGAGGUCAGAUGAUGCCAAGAUAGAUUUAAAUGGCGUUUGGGCCUAUGCGUGCUAGUGUGA
modifications: 2'-F pyrimidines
B8: SEQ 72 (mixed)
mixed: GGGTTAGAUAGAGTUAAAAACCC
modifications: idT-G(M)G(M)G(M)ttAG(M)A(M)U(F)A(M)GAG(M)tU(F)A(M)A(M)A(M)A(M)A(M)ccc-idT (lower case DNA)
B9: GGGACGGUAGGAAUUCGUCCCUCAUGUCUAUUUUGCAGAUAGACUUAAAGCAAACAUAGAAGAGCGGCCGC (nucleic acid)
chain: rGrGrGrAfCrGrGfUrArGrGrArAfUfUfCrGfUfCfCfCfUfCrAfUrGfUfCfUrAfUfUfUfUrGfCrArGrAfUrArGrAfCfUfUrArArArGfCrArArAfCrAfUrArGrArArGrArGfCrGrGfCfCrGfC
B10: 56(31) (ssRNA)
RNA: GGGUUAGAUAGAGUUAAAAACCC
modifications: idT-G(M)G(M)G(M)U(F)U(F)AG(M)AU(F)A(M)GAG(M)U(F)U(F)A(M)A(M)A(M)A(M)A(M)C(F)C(F)C(F)-idT (M=2'-OMe, F=2'-F)
B11: 56(38) (ssRNA)
RNA: GGGUUAGAUAGAGUUAAAAACCC
modifications: idT-G(M)G(M)G(M)U(F)U(F)sAsGAU(F)A(M)GAG(M)U(F)U(F)A(M)A(M)A(M)A(M)A(M)C(F)C(F)C(F)-idT (M=2'-OMe, F=2'-F, s=PS)
B12: SEQ 38 (ssRNA)
RNA: GGGAGCAGGAGAGAGGUCAGAUGGAUAGAGUUAAGAUCUGGCUGGCGCAUUAGCCUAUGCGUGCUAGUGUGA
modifications: 2'-F pyrimidines
B13: GGGACGGUAGGAAUUCUCGUUCCUGACAGCAUUUGAGAUAGAUUUAAACAAACGCACAUAGAAGAGCGGCCGC (nucleic acid)
chain: GGGACGGUAGGAAUUCUCGUUCCUGACAGCAUUUGAGAUAGAUUUAAACAAACGCACAUAGAAGAGCGGCCGC
modifications: chemistry not given here

Assays:
[1] = molecular target: T1, chymase (recombinant) (UniProt P23946 P23946:22-247); test: inhibition; SPR ++; settings: tags: SIGMA, expressed in yeast
T1 sequence: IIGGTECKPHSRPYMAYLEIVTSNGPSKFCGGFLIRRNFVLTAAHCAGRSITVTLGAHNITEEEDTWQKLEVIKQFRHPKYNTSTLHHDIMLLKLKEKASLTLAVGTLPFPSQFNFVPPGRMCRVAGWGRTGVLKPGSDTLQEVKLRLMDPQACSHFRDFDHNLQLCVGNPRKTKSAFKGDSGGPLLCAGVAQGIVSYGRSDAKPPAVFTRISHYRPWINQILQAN
Description: (§1) Here, Suc is a protecting succinyl group, and MCA is a 4-methylcoumaryl-7-amide group; upon cleavage of the C-terminal side of phenylalanine, AMC (7-amino-4-methyl-coumarine) is released. By detecting the fluorescence of this AMC, the enzyme activity of chymase can be determined. The assay was performed using a 96-well plate (F16 Black Maxisorp Fluoronunc, manufactured by Nunc), with a reaction mixture volume of 100 μL, in solution C as a buffer solution. First, each nucleic acid was serially diluted to 0.0027-2 μM concentrations in solution C to obtain 50 μL solutions. After 10 μL of the 1 mM substrate prepared in solution C was added thereto, the plate was set to the microplate reader SpectraMax190 (manufactured by Molecular Devices Corporation), and incubated at 37° C. for 5 minutes. Separately, 0.05 μg (or 0.005 μg) of chymase (recombinant, manufactured by SIGMA) was diluted in solution C to obtain a 40 μL chymase solution, and incubated at 37° C. for 5 minutes. The chymase solution was added to the mixture of the nucleic acid and substrate to initiate an enzyme reaction. The final chymase concentration in the reaction mixture was 16.7 nM (or 1.67 nM), the final substrate concentration being 100 μM. The plate containing the reaction mixture was set to the microplate reader SpectraMax190 (manufactured by Molecular Devices Corporation), and examined for time-dependent changes in the fluorescence intensity at 37° C. for 5 minutes (or 30 minutes) (excitation wavelength 380 nm, detection wavelength 460 nm). A linear approximation of the increase in the fluorescence of the AMC released from the substrate by chymase activity was generated, and its slope was taken as the initial velocity […]. For control, samples were treated and analyzed in the same manner in two cases: use of a 30N or 40N (a nucleotide of 30 or 40 consecutive bases represented by N; N is A, G, C or T) nucleic acid pool (negative control), and use of chymostatin, a known chymotrypsin-like serine protease inhibitor (positive control). Taking the initial reaction velocity without the nucleic acid and inhibitor (V_0) as a 100% enzyme activity, the inhibitory rate of each test substance was calculated using the following equation: […]
The chymase inhibitory activity was measured in the same manner as in Example 3.

[2] = molecular target: T1, chymase (recombinant); test: inhibition; SPR ++ (Table 2); settings: tags: SIGMA, expressed in yeast
Description: as §1

[3] = molecular target: T2, chymase (Homo sapiens, UniProt P23946); test: Surface plasmon resonance (Biacore T100), aptamer immobilized on SA chip, chymase injected as analyte; assay type: binding; settings: Table 1; about 1000 RU nucleic acid immobilized, chymase 0.2 μM analyte, running buffer solution A; compared with 40N
T2 sequence (P23946 22-247): T1 sequence
Description: Binding strength is measured using Biacore T100 (manufactured by GE Healthcare). In a method of measurement, the aptamer is first immobilized onto a sensor chip, the amount immobilized being about 1000 RU. 20 μL of a chymase solution for analyte, prepared at 0.2 μM, is injected, and the binding of chymase to the aptamer is detected. An RNA comprising a random nucleotide sequence of 30 or 40 nucleotides is used as a negative control.
The binding activities against chymase of the nucleic acids shown by SEQ ID NO: 4-20 and 22-34 were determined by the surface plasmon resonance method using Biacore T100 (manufactured by GE Healthcare). The sensor chip used was the SA chip, which had streptavidin immobilized thereon. Bound thereto was about 1500 RU of a 16-nucleotide Poly dT with biotin bound to the 5′ end thereof. […] 20 μL of chymase for analyte, prepared at 0.2 μM, was injected. Solution A was used as a running buffer.
The binding activities against chymase of the nucleic acids shown by SEQ ID NO: 38-48 were evaluated by the surface plasmon resonance method. In the evaluations for SEQ ID NO: 38-48, measurements were taken in the same manner as Example 1. Solution C was used as a running buffer.

Molecule	IC50 [1]	IC50 [2]	further results
B1	78 nM	–	–
B2	28 nM	–	–
B3	27 nM	–	–
B4	–	95 nM	–
B5	–	49 nM	–
B6	–	–	Binding activity as determined using Biacore [3]: higher binding activity than 40N
B7	–	81 nM	–
B8	20 nM	–	–
B9	–	–	Binding activity as determined using Biacore [3]: equivalent binding activity compared with 40N
B10	23 nM	–	–
B11	19 nM	–	–
B12	–	50 nM	–
B13	–	–	Binding activity as determined using Biacore [3]: higher binding activity than 40N
